The series can be described thus: yeast display, Sf9 membrane polyspecificity reagent, FACS + sequencing; frameworks hold sequencing errors. An outline of the steps:
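Synthetic nanobody libraries on Saccharomyces cerevisiae BJ5465 were galactose-induced for 36–48 hours, stained 1 hour at 4 °C with 10% biotinylated, detergent-solubilized Sf9 membrane reagent and enriched on streptavidin microbeads. FACS then separated cells into low and high (top ~1%) gates by anti-HA (expression) and streptavidin (reagent binding) fluorescence. Genes were colony-PCR amplified, MiSeq 2 × 250 sequenced and CDR-length filtered. A clone's polyreactivity label is that of its gate of origin.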
For “HVQLQESGGGLVQAGGSLRLSCAASGNISYSRNMGWYRQAPGKERELVAAIDRGAITYYADSVKGRFTISRDNAKNTVYLQIYSLKPEDTAVYYCAAEYHDRWDHRYWGQGTQVTVSS”, the “polyreactivity (PSR sort gate)” value was “high polyreactivity”.

Turning to “QVQLVESGGGLVQAGGSLRLSCAASGFTFSVYAMGWSRQAPGKERELVAAITSDGITNYADSVKGRFTISRDNAKNTVYLQMNSLKPEDTAVYYCNADPGYVRGYDYWGQGTQVTVSS”, the “polyreactivity (PSR sort gate)” value was “low polyreactivity”.

For the sequence “QVQLVESGGGLVQAGGSLRLSCAASGFTFGSYAMGWYRQAPGKERELVAAITYSGSRTYYADSVKGRFTISRDNAKNTVYLQMNSLKPEDTAVYYCAAVTHYGFDYWGQGTQVTVSS”, the “polyreactivity (PSR sort gate)” value is “high polyreactivity”.

Turning to “QVQLVESGGGLVQAGGSLRLSFAASGITFDSYAKGWYRQAPGKERELVATISRSGTTTYYADSVKGRFTISRDNAKNTVYLQMNSLKPEDTAVYYCNTLRAYWTYHFYGAVRDGYDYWGQGTQVTVSS”, the “polyreactivity (PSR sort gate)” value is given as “low polyreactivity”.

Consider “QVQLVESGGGLVQAGGSLRLSCAASGFTFTRNAMGLYRQAPGKERELFAAISKRGGTTYYADSVKGRFSISRDYAKNTVYLQMNSLKPEDTAVYYCAKDGGITGGYWGQGSQVTVSS”, for which the “polyreactivity (PSR sort gate)” value is on record as “high polyreactivity”.

Consider “QFQLVESGGGLVQAAGSLRLSCAASGSTFVSNAMGWYRQAPGKDRELVAAITRSGGSTRDADSVKGRLTISRDNAKNTGYLQMNSLKPEDTAVYYCAAPHKYYGLRYYYWGQGTQVTVSS”, for which the “polyreactivity (PSR sort gate)” value is reported as “high polyreactivity”.

“QVQLVESGGGLVQAGGSLRLSCAASGSIFWYNAMGWYRQAPGKERELVAAIRWRGGSTYYADSVKGRFTISRDNAKNTVYLQMNSLKPEDTAVYYCARDRYYRTLGYGYWGQGTQVNVSS”: the “polyreactivity (PSR sort gate)” value is given as “high polyreactivity”.

On to “QVQLVESGGGLVQAGGSLRLSCAASGSIFRVYAMGWYRQAPGKERELVARISWSDDGTYYADSVKGRFTISRDNAKNTVYLQMNSLKPEDTAVYYCNADSYYYPYDYWGQGTQVTVSS”, for which the “polyreactivity (PSR sort gate)” value is on record as “low polyreactivity”.

Consider “QVQLVESGGGLVQAGGSLRLSCAASGLTFTWYTMGWYRQAPGKERELVAAITSGGSTNYADSVKGSFTISRDNAKNTVYLQMNSLKPEDTAVYYCAASRTFYWWEYGYWGQGTQVTVSS”, for which the “polyreactivity (PSR sort gate)” value was “high polyreactivity”.

As to “QVQLVESGGGLVQAGGSLRLSCAASGFIFGKYAMGWYRQAPGKEREVVAAITSGGSTYYADSVKGRFTISRDNAKNTVYLQMNSLKPEDTAVYYCAVPFTFWWSSYRYDYWGQGTQVTVSS”, the “polyreactivity (PSR sort gate)” value was “high polyreactivity”.

Regarding “QVQLVESRGGLVQAGGSLRLSCAASGYIFSYNAMGCYRQAPGKERELVAATSSRGGSTYYADSVKGRFTISRDNAKNPDYLQMNSLKPEDTAVYFCAVSSRRVDTEPYDYWGQGTQVTVSS”, the “polyreactivity (PSR sort gate)” value is reported as “high polyreactivity”.

With “QVQLVESGGGLVQAGGSLRLSCAASGSIFYIYAMGWYRQAPGKERELVAAISWSGSSTYYADSVKGRFTISRDNAKHTVYLQMNSLKPEDTAVYYCAADTGYGVRYYYWGQGTQVTVSS”, the “polyreactivity (PSR sort gate)” value is listed as “high polyreactivity”.

With “QVQLVESGGGLVQAGGSLRLSCAASGFTFSHYAMGWYRQAPGKEREVVADISRRGGRTYYADSVKGRFTISRDNAKNTVSLQMNSLKPEDTAVYYCAAPDESYSVWRLDGLDYWGQGTQVTVSS”, the “polyreactivity (PSR sort gate)” value is given as “high polyreactivity”.

“QVQLVESGGGLVQAGGSLRLSCAASGSTIVRYAMGWYRQAPGKERELVAAISGGGSTSYADSVKGRFTISRDNAKNTVYLQMNSLKPEDTAVYYCAKAGYRSEFEYWGQGTQVTVSS”: the “polyreactivity (PSR sort gate)” value is “low polyreactivity”.

For “QVQLVDSRGGLVQAGGSLRLICAASGSTFGRYARGWYRPEPGTERELVAAISWRGGSTFYADSVKGRFTISRDNAKNTVYLLMISLKPEDTAVYYCAAVSYGRPRMGYWGQGTQVTVSS”, the “polyreactivity (PSR sort gate)” value is reported as “high polyreactivity”.

Take “QVQIVESGVGLVQAGGSLRLSCAASGRIVSSKVMGLYRQAAGKERELVAAITSGGSTYYADSVKGRFTISRDNAKNTVYLQMNSLKPEDTAVYYCAASYWVLRYRYDYWGQGTQVTVSS”: the “polyreactivity (PSR sort gate)” value was “high polyreactivity”.

Turning to “QVQLVDSGGGLVQAGGSLRLSCAASGSTFSTYPMGWYRQAPGKERELVAAISRSGGTTYYADSVKGRFTISRDNAKNTVYLQMNSLKQEETAVYYCNAVTRYTQIMDYWGQGTQVTVSS”, the “polyreactivity (PSR sort gate)” value is reported as “high polyreactivity”.

On to “QVQLVESGGGLVQAGGSLRLSCAASGRIFYANAMGWYRQAPGKERELVAAISSGGSTYYADSVKGRFTISRDNANNTVYLQMNSLKPEDTAVYYFAASTVGQTFSYYVDTYDYWGQGTQVTVSS”, for which the “polyreactivity (PSR sort gate)” value was “low polyreactivity”.

Consider “QVHLVESGGGLVQAGGSLRLSCAASGFTLYYYMGWYRQAPGKERELVAGISNSGSTSYADSVKGRFTISRDNAKNTVYLQMNSLKPEDTAVYYCNAYYPAWYLDRYYYWGQGTQVTVSS”, for which the “polyreactivity (PSR sort gate)” value was “high polyreactivity”.

For the sequence “QVQLVESGGGLVQAGGSLRLSCAASGSISYQNAMGWYRQAPGKERELVAAISGDGDSTYYADSVKGRFTISRDNAKNTVYLQMNSLKPEDTAVYYCAAEPNVYFSVFVLFPYDYWGQGTQVTVSS”, the “polyreactivity (PSR sort gate)” value is reported as “low polyreactivity”.

For “QVQLVESGGGLDQAGGSLRLSCAASGFIFAYYAMGWYRQAPGKERELVAAISSGGRTYYADSVKGRFTISRDNAKNTVYLQLNSLKPEDTAVYYCNKRFYPEHYYWGQGTQVTVSS”, the “polyreactivity (PSR sort gate)” value is given as “high polyreactivity”.

For the sequence “QVQLVESGGGLVQAGGSLRLSCPASGRIVANAMGWYIQAPGKERELVAAISSVGSTNYADSVKGRFTISRDNAKNTVYLQMNSLKPEDTAVYYCAARGYRWYIAVDFWGQGTQVTVSS”, the “polyreactivity (PSR sort gate)” value is “low polyreactivity”.

On to “QVQLVESGGGLVQAGGSLRLSCAASGRTFAQYGMVWYRQAPGKEMELVAAISRRTGSTNYADSVKGRFTISRDNAKNTVYLQMNSLKPEDTAVYYCAARSYSYGVGYGYWGQGTQVTVSS”, for which the “polyreactivity (PSR sort gate)” value is recorded as “high polyreactivity”.

Regarding “QVQLVESGGGLVQAGGSLRLSCAASGFTFSRYAMVWYRKAPGKDRELVAVISSSGSRTYYADSVKGRFSISRHNAKNTVHLQMNSLQPEDTAVYYGAAKSYTVTAYEYWGQGTQVTVSS”, the “polyreactivity (PSR sort gate)” value is on record as “high polyreactivity”.

Regarding “QVQLVESGGGLVQAGGSLRLSCAASGSTFVINDMGWYRQAPGKERELVAAITWGSGSTYYADSVKGRFTISRDNAKNTVYLQMNSLKPEDTAVYYCAADVYFGLVGYYAEYNDYWGQGTQVNVSS”, the “polyreactivity (PSR sort gate)” value was “low polyreactivity”.

Turning to “QVQLEESGGGLVQAGGSLRLSCAASGITFSGNAMGWYRQAPGKERELVATISQSGGRTYYADSVKGRFTISRDNAKNTVYLQMNSLKPEDTAVYYCARRRLRYTDRGYYYWGQGTQVTVSS”, the “polyreactivity (PSR sort gate)” value is “high polyreactivity”.

Regarding “QVQLVESGGGLVQAGGSLRLSCAASGSIFARNAMGWYRPAPGKERELVAVITTGGRTYYADSVKGRFTISRDNAKNTVYLQMNSLKPEDTAVYYCATRVIYGHSGGYWGQGTQVTVSS”, the “polyreactivity (PSR sort gate)” value is listed as “high polyreactivity”.

Regarding “QVQLVESGGGLVQAGGSLRLSCAASGFIFSSNTMGWYRQAPGKERELVADITSGARTNYADSVKGRFTISRDNAKNTVYLQMNSLKPEDTAVYYCAAYPHYIYFTWYPRYTYGYWGQGTQVTVSS”, the “polyreactivity (PSR sort gate)” value is on record as “low polyreactivity”.

For the sequence “QVQLVESGGGLVQAGGSLRLSCAYSGRTFYYNTMGWYRQAPGKEREFVATISRIGGSTYYADSVKGRFTISRDNAKNTVYFQMNSLKPEDTAVYYCAKGRSLNGLPPVVYWQLFYYWGQGTLVTVSS”, the “polyreactivity (PSR sort gate)” value is listed as “high polyreactivity”.

With “QVQLVESGGGLVQAGGSLRLSCAASGSIFVRNAMGWYRQAPGKERELVAAITYSGSRTYYADSVKGRFTISRDNAKNTVYLQMNSLKPEDTEVYYCAKVRVLVDKWSTFYEYYYWGQGTQVTVSS”, the “polyreactivity (PSR sort gate)” value was “low polyreactivity”.

For the origin of these results see the nanobody polyreactivity screen of Harvey et al. (2022).
